B1: 090116-K02 (protein)
chain: MALPVTALLLPLALLLHAARPLEGKPIPNPLLGLDSTGSGEDLKNVFPPEVAVFEPSKAEIAHTQKATLVCLATGFYPDHVELSWWVNGKEVHSGVCTDPQPLKEQPALNDSRYCLSSRLRVSATFWQNPRNHFRCQVQFYGLSENDEWTQDRAKPVTQIVSAEAWGRADCGITSASYHQGVLSATILYEILLGKATLYAVLVSALVLMAMVKRKDSRGRAKRSGSGATNFSLLKQAGDVEENPGPTSMALPVTALLLPLALLLHAARPDIVMTQSHKFMSTSVGDRVSVTCKASQNVGNNVAWYQQKPGQSPKVLIYSASYRYSGVPDRFTGSGSGTDFTLTISNVQSEDLAEYFCQQYNTYPFTFGSGTKLEIKGGGGSGGGGSGGGGSEVQLEESGGGLVQPGGSMKLSCVASGFTFSNYWMNWVRQSPEKGLEWVAEIRFKSHNYATHFAESVKGRFTISRDDSKSSVYLQMNNLRAEDTGIYYCTRRIGNSDYDWWYFDVWGAGTSVTVSSASTREQKLISEEDGSGIQNPDPAVYQLRDSKSSDKSVCLFTDFDSQTNVSQSKDSDVYITDKCVLDMRSMDFKSNSAVAWSNKSDFACANAFNNSIIPEDTFFPSSDVPCDVKLVEKSFETDTNLNFQNLSVIGFRILLLKVAGFNLLMTLRLWSSRAKRSGSGVKQTLNFDLLKLAGDVESNPGPSRGHMTEYKPTVRLATRDDVPRAVRTLAAAFADYPATRHTVDPDRHIERVTELQELFLTRVGLDIGKVWVADDGAAVAVWTTPESVEAGAVFAEIGPRMAELSGSRLAAQQQMEGLLAPHRPKEPAWFLATVGVSPDHQGKGLGSAVVLPGVEAAERAGVPAFLETSAPRNLPFYERLGFTVTADVEVPEGPRTWCMTRKPGA
modifications: Synthetic Immune Receptor (SIR)
B2: 083016-B06 (protein)
chain: MALPVTALLLPLALLLHAARPLEGKPIPNPLLGLDSTGSGEDLKNVFPPEVAVFEPSKAEIAHTQKATLVCLATGFYPDHVELSWWVNGKEVHSGVCTDPQPLKEQPALNDSRYCLSSRLRVSATFWQNPRNHFRCQVQFYGLSENDEWTQDRAKPVTQIVSAEAWGRADCGITSASYHQGVLSATILYEILLGKATLYAVLVSALVLMAMVKRKDSRGRAKRSGSGATNFSLLKQAGDVEENPGPTSMALPVTALLLPLALLLHAARPDIVMTQSHKFMSTSVGDRVSVTCKASQNVGNNVAWYQQKPGQSPKVLIYSASYRYSGVPDRFTGSGSGTDFTLTISNVQSEDLAEYFCQQYNTYPFTFGSGTKLEIKGGGGSGGGGSGGGGSEVQLEESGGGLVQPGGSMKLSCVASGFTFSNYWMNWVRQSPEKGLEWVAEIRFKSHNYATHFAESVKGRFTISRDDSKSSVYLQMNNLRAEDTGIYYCTRRIGNSDYDWWYFDVWGAGTSVTVSSASTREQKLISEEDLGSGTPFPSLAPPIMLLVDGKQQMVVVCLVLDVAPPGLDSPIWFSAGNGSALDAFTYGPSPATDGTWTNLAHLSLPSEELASWEPLVCHTGPGAEGHSRSTQPMHLSGEASTARTCPQEPLRGTPGGALWLGVLRLLLFKLLLFDLLLTCSCLCDPAGPLPSPATTTRLRALGSHRLHPATETGGREATSSPRPQPRDRRWGDTPPGRKPGSPVRAKRSGSGVKQTLNFDLLKLAGDVESNPGPSRSRGHMTEYKPTVRLATRDDVPRAVRTLAAAFADYPATRHTVDPDRHIERVTELQELFLTRVGLDIGKVWVADDGAAVAVWTTPESVEAGAVFAEIGPRMAELSGSRLAAQQQMEGLLAPHRPKEPAWFLATVGVSPDHQGKGLGSAVVLPGVEAAERAGVPAFLETSAPRNLPFYERLGFTVTADVEVPEGPRTWCMTRKPGA
modifications: Polynucleotide encoding a Synthetic Immune Receptor (SIR)
B3: 091316-A01 (protein)
chain: MALPVTALLLPLALLLHAARPLEGKPIPNPLLGLDSTGSGEDLKNVFPPEVAVFEPSKAEIAHTQKATLVCLATGFYPDHVELSWWVNGKEVHSGVCTDPQPLKEQPALNDSRYCLSSRLRVSATFWQNPRNHFRCQVQFYGLSENDEWTQDRAKPVTQIVSAEAWGRADCGITSASYHQGVLSATILYEILLGKATLYAVLVSALVLMAMVKRKDSRGRAKRSGSGATNFSLLKQAGDVEENPGPTSMALPVTALLLPLALLLHAARPDIVMTQAAPSIPVTPGESVSISCRSDKSLLHSNGNTYLFWFLQRPGQSPQLLIYRMSNLASGVPDRFSGSGSGTAFTLRISGVEAEDVGVYYCMQHLEYPYTFGGGTKLEIKGGGGSGGGGSGGGGSQVQLQQSGPELVKPGASVKMSCKASGYAFSSSWLNWVRQRPGKGLEWIGRIYPGDGENHYNGKFKGKATLTADKSSSTGYMQLSSLTSEDSAVYFCASYYEGGYWGQGTLITVSATREQKLISEEDGSGIQNPDPAVYQLRDSKSSDKSVCLFTDFDSQTNVSQSKDSDVYITDKCVLDMRSMDFKSNSAVAWSNKSDFACANAFNNSIIPEDTFFPSSDVPCDVKLVEKSFETDTNLNFQNLSVIGFRILLLKVAGFNLLMTLRLWSSRAKRSGSGVKQTLNFDLLKLAGDVESNPGPSRGHMTEYKPTVRLATRDDVPRAVRTLAAAFADYPATRHTVDPDRHIERVTELQELFLTRVGLDIGKVWVADDGAAVAVWTTPESVEAGAVFAEIGPRMAELSGSRLAAQQQMEGLLAPHRPKEPAWFLATVGVSPDHQGKGLGSAVVLPGVEAAERAGVPAFLETSAPRNLPFYERLGFTVTADVEVPEGPRTWCMTRKPGA
modifications: Synthetic Immune Receptor (SIR)
B4: 092216-B03 (protein)
chain: MALPVTALLLPLALLLHAARPLEGKPIPNPLLGLDSTGSGEDLKNVFPPEVAVFEPSKAEIAHTQKATLVCLATGFYPDHVELSWWVNGKEVHSGVCTDPQPLKEQPALNDSRYCLSSRLRVSATFWQNPRNHFRCQVQFYGLSENDEWTQDRAKPVTQIVSAEAWGRADCGITSASYHQGVLSATILYEILLGKATLYAVLVSALVLMAMVKRKDSRGRAKRSGSGATNFSLLKQAGDVEENPGPTSMALPVTALLLPLALLLHAARPDQIVLTQSPAIMSASPGEKVTISCSASSSVSYMYWYQQKPGSSPKPWIYRTSNLASGVPARFSGSGSGTSYSLTISNMEAEDAAAYYCQQYHSYPTTFGGGTKLEVKGGGGSGGGGSGGGGSEVQLVESGGGLVQPKGSLKLSCAASGFSFNTYAMNWVRQAPGKGLEWIAHIRSKSNNFATYYADSVKDRFSISRDASENILFLQMNNLKTEDTAMYYCVRQGGDFPMDYWGQGTSVTVSSTREQKLISEEDGSGIQNPDPAVYQLRDSKSSDKSVCLFTDFDSQTNVSQSKDSDVYITDKCVLDMRSMDFKSNSAVAWSNKSDFACANAFNNSIIPEDTFFPSSDVPCDVKLVEKSFETDTNLNFQNLSVIGFRILLLKVAGFNLLMTLRLWSSRAKRSGSGVKQTLNFDLLKLAGDVESNPGPSRGHMTEYKPTVRLATRDDVPRAVRTLAAAFADYPATRHTVDPDRHIERVTELQELFLTRVGLDIGKVWVADDGAAVAVWTTPESVEAGAVFAEIGPRMAELSGSRLAAQQQMEGLLAPHRPKEPAWFLATVGVSPDHQGKGLGSAVVLPGVEAAERAGVPAFLETSAPRNLPFYERLGFTVTADVEVPEGPRTWCMTRKPGA
modifications: Synthetic Immune Receptor (SIR)
B5: 101817-B02 (protein)
chain: MALPVTALLLPLALLLHAARPEIVLTQSPATLSLSPGERATLSCSASSSVSYMYWYQQKPGQAPRLLIYRTSNLASGIPARFSGSGSGTDFTLTISSLEPEDFAVYYCQQYHSYPTTFGQGTKVEIKRTVLEIQNPDPAVYQLRDSKSSDKSVCLFTDFDSQTNVSQSKDSDVYITDKCVLDMRSMDFKSNSAVAWSNKSDFACANAFNNSIIPEDTFFPSSDVPCDVKLVEKSFETDTNLNFQNLSVIGFRILLLKVAGFNLLMTLRLWSSRAKRSGSGVKQTLNFDLLKLAGDVESNPGPTSMDWIWRILFLVGAATGAHSFEEVQLVESGGGLVQPGGSLRLSCAASGFSFNTYAMNWVRQAPGKGLEWVSHIRSKSNNFATYYADSVKDRFTISRDNAKNSLYLQMNSLRAEDTAVYYCARQGGDFPMDYWGQGTLVTVSSTREDLKNVFPPEVAVFEPSKAEIAHTQKATLVCLATGFYPDHVELSWWVNGKEVHSGVCTDPQPLKEQPALNDSRYCLSSRLRVSATFWQNPRNHFRCQVQFYGLSENDEWTQDRAKPVTQIVSAEAWGRADCGITSASYHQGVLSATILYEILLGKATLYAVLVSALVLMAMVKRKDSRGRAKRSGSGATNFSLLKQAGDVEENPGPSRGHMTEYKPTVRLATRDDVPRAVRTLAAAFADYPATRHTVDPDRHIERVTELQELFLTRVGLDIGKVWVADDGAAVAVWTTPESVEAGAVFAEIGPRMAELSGSRLAAQQQMEGLLAPHRPKEPAWFLATVGVSPDHQGKGLGSAVVLPGVEAAERAGVPAFLETSAPRNLPFYERLGFTVTADVEVPEGPRTWCMTRKPGA
B6: 092517-H02 (protein)
chain: MALPVTALLLPLALLLHAARPLEGKPIPNPLLGLDSTGSGEDLKNVFPPEVAVFEPSKAEIAHTQKATLVCLATGFYPDHVELSWWVNGKEVHSGVCTDPQPLKEQPALNDSRYCLSSRLRVSATFWQNPRNHFRCQVQFYGLSENDEWTQDRAKPVTQIVSAEAWGRADCGITSASYHQGVLSATILYEILLGKATLYAVLVSALVLMAMVKRKDSRGRAKRSGSGATNFSLLKQAGDVEENPGPTSMALPVTALLLPLALLLHAARPDVVMTQSPSSLSASVGDRVTITCKASEDIYIRLAWYQQKPGKAPKLLIYAATSLETGVPSRFSGSGSGTDFTLTISSLQPEDFATYYCQQYWTTPWTFGGGTKVEIKGGGGSGGGGSGGGGSQVQLQESGPGLVKPSQTLSLTCTVSGYSITIDYTWNWIRQPPGKGLEWIGYITYSGSTDYNPSLKSRVLISVDTSKNQVSLKLSSVTAADTAVYYCARLGRRYALDYWGQGTTVTVSSTREQKLISEEDGSGIQNPDPAVYQLRDSKSSDKSVCLFTDFDSQTNVSQSKDSDVYITDKCVLDMRSMDFKSNSAVAWSNKSDFACANAFNNSIIPEDTFFPSSDVPCDVKLVEKSFETDTNLNFQNLSVIGFRILLLKVAGFNLLMTLRLWSSRAKRSGSGVKQTLNFDLLKLAGDVESNPGPSRGHMTEYKPTVRLATRDDVPRAVRTLAAAFADYPATRHTVDPDRHIERVTELQELFLTRVGLDIGKVWVADDGAAVAVWTTPESVEAGAVFAEIGPRMAELSGSRLAAQQQMEGLLAPHRPKEPAWFLATVGVSPDHQGKGLGSAVVLPGVEAAERAGVPAFLETSAPRNLPFYERLGFTVTADVEVPEGPRTWCMTRKPGA

System: target antigen-expressing cell line
Assay: Jurkat NFAT-GFP assay, coculture with target cell lines expressing the respective target antigen (summary Table 10A)
Assay type: cell-based, human
Design: key: The signs +/−, +, 2+ etc. after the name of the cell lines indicate the relative degree of positivity on the Jurkat-NFAT-GFP assay as measured by the % GFP positive cells; +: relative degree of positivity on the Jurkat-NFAT-GFP assay as measured by the % GFP positive cells; 2+: relative degree of positivity on the Jurkat-NFAT-GFP assay as measured by the % GFP positive cells
In short: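 Positivity is scored when SIR-expressing reporter Jurkat cells show more GFP-positive cells than parental controls after coculture with the antigen-bearing line. Effector-to-target ratio is about 1:2, coculture lasts roughly 4–18 hours, and GFP is quantified by FACS.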

Molecule | NFAT-GFP ASSAY Positive Cell lines (coculture with NALM6 cells) | NFAT-GFP ASSAY Positive Cell lines (coculture with RAJI cells) | NFAT-GFP ASSAY Positive Cell lines (coculture with HEL cells)
B1 | (2+) | RAJI (2+), NALM6 | 
B2 |  | RAJI (+) | 
B3 |  |  | HEL (+/−)
B4 |  |  | HEL (+)
B5 |  |  | HEL (+)
B6 |  |  | HEL(+)

Reference: patent US12269859B2, “Synthetic immune receptors and methods of use thereof” (Angeles Therapeutics, Inc., priority 2016, dated 2025)
